Assay [1] has as its target T1, GST binding HB-EGF remaining fragment (UniProt P08515 1-218 = GST; Q99075 185-208).
T1 construct: also called remaining fragments of HB-EGF
The assay can be described thus: GST pull-down, anti-FLAG immunoblot.
Experimental: Test Method (1) In order to specify a region of PLZF protein that interacts with a remaining fragment, GST pull-down assay was performed.
(2) GST, GST binding HB-LGF remaining fragments that were expressed and isolated with *E. coli* BL21 strain according to the GST pull-down assay standard protocol were used. The fragments were bound to Glutathione Sepharose beads, and then cell lysates containing various FLAG-tagged PLZF protein derivatives were incubated with 20 µl of the beads at 4° C. for two hours. After washing with water, the bound protein was analyzed by immunoblotting using anti-FLAG antibody (referring to the peptide sold under the trademark FLAG by Sigma Aldrich Co.).

In assay [2] the target is T1, GST binding HB-EGF remaining fragment. The assay can be described thus: GST pull-down, same method as Test Example 1.

T1 sequence (P08515 1-218, tags or fused parts left off): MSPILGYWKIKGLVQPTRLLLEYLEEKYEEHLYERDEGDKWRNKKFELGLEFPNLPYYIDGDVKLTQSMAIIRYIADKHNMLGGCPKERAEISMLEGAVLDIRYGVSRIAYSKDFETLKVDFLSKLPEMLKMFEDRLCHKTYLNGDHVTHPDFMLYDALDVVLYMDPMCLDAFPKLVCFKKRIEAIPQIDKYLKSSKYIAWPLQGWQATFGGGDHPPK

B1: PLZF protein derivative consisting only of a region of Zn6 to Zn7 (other, UniProt Q05516 546-596, looked up)
chain: YECEFCGSCFRDESTLKSHKRIHTGEKPYECNGCGKKFSLKHQLETHYRVH
notes: domain: Zn6 to Zn7; also called FLAG-tagged PLZF protein derivative 7); not shown: FLAG synthetic octapeptide tag (Sigma-Aldrich)
Turning to B1, in assay [1], the binding result is on record as “no binding”.

B2: Bcl-6 protein derivative consisting only of a region of Zn1 to Zn4 (other, UniProt P41182 518-624, looked up, not shown: small tags and cut ends)
chain: FFCNECDCRFSEEASLKRHTLQTHSDKPYKCDRCQASFRYKGNLASHKTVHTGEKPYRCNICGAQFNRPANLKTHTRIHSGEKPYKCETCGARFVQVAHLRAHVLIH
notes: domain: Zn1 to Zn4; also called Bcl-6 protein derivative 8)
As to B2, the binding result in assay [2] is reported as “no binding”.

B3: PLZF protein derivative consisting only of the BTB region (other, UniProt Q05516 1-132, looked up)
chain: MDLTKMGMIQLQNPSHPTGLLCKANQMRLAGTLCDVVIMVDSQEFHAHRTVLACTSKMFEILFHRNSQHYTLDFLSPKTFQQILEYAYTATLQAKAEDLDDLLYAAEILEIEYLEEQCLKMLETIQASDDND
notes: domain: BTB region; also called FLAG-tagged PLZF protein derivative 6); not shown: FLAG synthetic octapeptide tag (Sigma-Aldrich)
B3: the binding result in assay [1] is recorded as “no binding”.

(Values after patent US7498127 (dated 2009).)
